Percent (m/m) of IgM in pentameric configuration and stoichiometry N data for 1 molecule are collected here from publication PMC10620216.

The target in this assay is anti-StrepTagII pentameric IgM with J-chain. In words: mass photometry; Refeyn OneMP, in PBS, measurement concentrations typically around 5–20 nM, recorded for 120 s; oligomeric state of the antibody in solution.

By stoichiometry N is commonly meant a count of units in the complex or per binding partner.

B1: anti-StrepTagII pentameric IgM with J-chain (antibody, V domains shown)
VH: EVQLEQSGPELVKPGASVKMSCKASGYTFTNYYMKWVKQSHGKSLEWIGDLNPNNGDTFYNQKFKGKATLTVDKSSNTAYMQLNSLTSEDSAVYYCARTGRYEENAMDYWGQGTSVTVSS
VL: ELVMTQSPASLAVSLGQRATISCRASESVDSYGKSFMHWYQLKPGQPPKLLIYRASNLESGVPARFSGSGSRTDFTLTIDPVEADDAATYYCQQNNEDPWTFGGGTKLEIK
On to B1, for which the percent (m/m) of IgM in pentameric configuration is 85 % (m/m) and the stoichiometry N amounted to 5.
